Here are results for 19 sequences from a protein production outcome set (Wang et al. 2014).

The data set is described as follows: label from the status in PepcDB records.
Take “MTKKTGFFKRLKALTLPQKQLFATALCQRMLPNYQLFSEVCEFGDPAVLSTALELLWQSLYDPKLKFNIDVHLQRLEDNTPEPADFEAYGVYPAMDAVVAISTLLGAIQGKIEEDIVNISKLSSSTVANYIEAISDVDLVDEALDDFVFAHEVMEEEKELQNSLLEIIEENPKITAELVKGLRKDIIETGVSNIGISVA”: the protein production entry is “not failed”. The entry for “MTKMYINTIIEYIDSNIAYSPIVFFSLLILAGLNVPISEDAIVLMGGILSSRKNEYTILIFLGIFWGAYLGDIISFYIGKLMGNKLFKNKKDNNLLDKINYYYGQYGVLTLFIGRFIPFGVRNAIFMSAGMGNMKSNLFIVSDFFATLLSIVVYFTLSFKLGQSFEIIFSKIKIIIFAIFIAVIATTIIIYVIKKNKKVDKNLK” is “failed”; for “MTKNAASKARIAYVCTECGTEYSKWQGQCTECGTWNCLSQITLGNAGSVKNPTMKHGNWTGQLDPPKITALKDVQHSEQARISTGIGEFDRVLGGGLVAGAVVLIGGDPGIGKSTLLLQALARMASNLPTLYVTGEESLAQVAGRAVRLDLPLEGLNALAETGIESILQHASSARPRLIVADSVQTLWTEALTAAPGSVSQVRESAAQLVRYAKETGTTVFLVGHVTKEGGIAGPRVLEHMVDAVLYFEGESGSRFRLLRAFKNRFGAVNELGVFAMSEKGLKEVANPSAIFLSGRNSDQPGSCVMVTREGTRPLMVEVQALVDTSPLSNPRRVTVGLEQNRLAMLLAVLHRHGNVLVGDQDVFINIVGGIRVQETAADLPVLLAVRSSLCNRALPEKTIAFGEVGLSGEIRPVPNGEERLREAATHGFKHAIVPKANAPKSAIKDMQIIAVERLDQALEASY” it is “failed”. As for “MTKQIKVGVIGVGQMGQYHAEIYQKLPQVELVAICEFNDERRAEMAEKFQCKAYKDYHELLANTEIEAVIIVLPDNMHRDCVEEAVKHKKHILLEKPLAKELEDGKAMYELTKDYDKVFTVGFLLRFDPRFNMIKQRLDNGELGDIIHLYCRRNSPITGPKRYIGASDLSMHVMIHDIDYINWYMDSEPVKVIAKSRSVLLKEYGMNDVIYAIVTYENGAIACLEACWVLPENSPTIIDDKLELVGTKGVAYVDSCDHGVRFVSEKGVSYPDSRHWYYTNGEVSGDLAEEVMAFINNVANNTKSIITPKEAYDSLRVVDAIERSIAEGKEVSL”, the protein production result was “failed”. As to “MTKRHVSLPADAKDVRRAFVSGVDERLSAAETPDELATAVTGTLADLRGERDAYEAWRDGDDVRPAAAARLATLDPRNASLESEYYAEKDEAAFARSKPLQWLWRQFDTTPLADNVDVALPFRRMLAGHLFAGVGEDVRLFKGITMTYGHNIELGDNAVVHDGVHLDDRGELVVGARASVSNGAHLYTHDHDVVDQTDVTNYRTEIGADARVTQGALVRAGVRVGENALVGSRSVVQGDVPAHHIAVGSPAESVRVKPGWEAVAAPLDAGGERRQAERRLDDAVPADAAVYDEFQRDRSPPGER”, the protein production result is given as “failed”. For “MTKSYDVWWQKGQESDDDMARDHQEAWERTIEMLDTSDIKGKTILDVGCNQGGFLRKLYDTTPFKEGVGIDLARLSLEKAETLKGERPLTYYLTDKPQETNRTFDTAVSTSVLYLIEDIPQHAQDLKEVLKPGGVYYASFADLTNNPSRQFMDDTINQYGATPSQNHSLKHIVDSFVDAGFEVAVMKEPVPDVIDLTHYSDFYLSPNDYLQTLYEESFLIKASVKEGIGKLEHHHHHH” the value was “not failed”; for “MTKVLILGANGRIARIVEQRLLAETDVQLTLVLRNAGRLLVTSPERETVIQGDVSDSQLLDTVMPNQDIVYANLAGNMALLAQTIITSMNRNHVPHLIWVTGSGLYHETPNPFGAWVEQVVGHAAKNDTRHAARIIESSDIPATIIRAAYMTDDTKIDYELTYKGERFKGTMISRASIADLIMKIIAEPTAYENTSLGIAQPGTDNMLPQVKLMAQHR”, “failed”; for “MTKYKVALFDLDNTLLKTEDASVAALTYALNQDGVEVTPQAIVELMGLPGIDMARELGSSNPAKTIDIFNERINQEVDLIKEYDGIDEMFAGLRELGIEYGIVTSKLRRVFDDEMRSFPKIRAIEKVVLSDDTKKHKPHADPIEFGMQKYFPKLNRADVIYVGDSLFDMQSAHAAGVDFANAGWGAIPANDFSEAEYILKTPTDLLEIV”, “failed”. For “MTKYQETAKAILAAVGGEKNIQHVTHCVTRLRLVLDNDEIVNDQVIKTIPNVIGVMRKNDQYQIILGNDVNNYYNAFLALGHFENTTREFSSQKKSSILEKLIETIAGVITPLIPALLGGGMLKVIGILLPMLGIASSSSQTVAFINFFGDAAYYFMPIMIAYSAASRFKVTPVLAATVGGILLHPAFVTMVAEGKPLSLFGAPVTLASYGSSVIPILIMVFLMQYIERWINKIVPSVMKSFLQPTLIILISGFLALVVVGPLGVIIGKGLSSAMLSIYHVAPWLALSILGAIMPLVVMTGMHWAFAPIFLAASVATPDVLILPAMLASNLAQGAASLAVAVKAKQKQTRQVAFAAGLSALLAGITEPALYGVTLKFKKPLYAAMISGGLVGAYIGLVNIASYTFVVPSIIGLPQYINPQGGNNFSNAVIAAIATIILTFIITWFLGIDEGENEKSSINAQEHTHIRSGLSKKETLYSPMVGNVLPLSKVPDETFSSKLLGEGLAITPSVGEVYAPFDGEIISLFPTKHAIALKDDKGVEVLIHIGIDTVELNGEGFEQLVKVGDFVKRGQLLLRMDIDFISSKGYSLISPVVVTNSIDQLEIIVKDAETMVTNEDDLLVIL” the value was “failed”. “MTLAARETAALDSVPEPPLADQLRAMDHLDALEAQSIYILREAFARLKKLALLWSLGKDSNVMIWLARKAFFGRVPFPALHVDTGKKFPEMYAFRDIYAKEWDLDLRVDPCPPIDSVDPTLPPAARSAARKTEGLKLALAKYGFDGLIAGIRRDEEATRAKERVFSPRGVEGGWDVRDQPAEFWDQFNASPPPGAHLRIHPILHWTEADIWAYTKREGIPIIPLYLSQNGKRYRSLGDQDITFPVNSNAASIDEILLELETTKVPERAGRALDHETEDAFERLRVAGYL”: the protein production result is “failed”.

With “MTLAPPPMPPSDAPAAESAGATLRLVIADALVVILTFIVMFLGVGQLSAEAGLSAVQTAVMTLLTVAAPAQAAAMQIMTSDGATSGVWVAAMVAVIIVNLRFMVMVASILGRLPQAGFLRGTAAVGLVSASSFAIILPRLMSAPPARPLLYCALVGVSCSISAVIGALLGHQLAASVPALVGAALGAMIPIYFATLIARQGKHKALIANALAGAVLVPLAAPLLGSLSLLIVPLGISALSLMIGKGTPANG”, the protein production entry is “failed”. The entry for “MTLATRSMQPHAVSPGQARSWPLPAAGWLLLAVGVWLAFLSWMRPLALPDEGRYAGVAWDMLRNGSFAVPLIDGMPYFHKPPLYYWLAELSFRLFGVNEWAVRLPSALAAWASAVALYLFVRRHRDAASATLCVLVLATLPLFFGGAQYANMDMLVAGMITLCVLAGADTALRVRGGQAWRAMALATGVCAALAMLAKGLIGLVLPGAILLAWLAWRRDWRGLRALLWPPAILAFAVVAVPWFWLMQVRYPGFFQYFFVHQHFERFAQTGFNNVQPFWFYLPVIAGLALPWSLWAGGLLRKQFWAADADPDGLRRLALVWLAVIVAFFSMPQSKLVGYIMPVLPPLAFLLAEVVMGALRDPAVARATRRMARVSALVAVAICVTAVFVASFNARGSSRELALSLRGELRPDDTLVALHTYPFDLQLYAHAARPMWVVDDWSNPEIPKRDNWRRELYDAVQFEPALGERLLVSADTFQQRLCQAPEGSRYWVWGTAADEEAYAPLRGQAARFADARRSLWLVLVDEAFKGRVCDGTPTGG” is “failed”; for “MTLDTAAGHPTMDFADRCPLPYTSPTHLQAVAYLHGIVAADPDRARVLELGCMSGANLLPFATAYPQAQAVGIDLDEEKIAQGQMWVQQYGLTNLQLQAMDLGSLLDSDLGKFDYIIVHGVFGLISGEARSALLAYCHRHLSAKGVVCFSYSTYPGGKTEEILQDALNLHASLAETPEQQQASARAMLSYLSLGMSADNPQRAAITTLVEEAEKLGDVSLALNYLQGLNQPCYLLDFNALIAQEGLSYVGEIEPHTEIASHYGEQVDSLLRAICPTGNKVLKQQYLDFNVGRKRRFSLLVATERAGKLESEIDISRLDKLSWAGSFRRVMLNKGLASNAHVTNAGIQISTDHELTQQILDVLGNAWPASVSFKQLIFNTHFPEKENDKQEHENNIRESLYALLKQGISSIHFCVGECAYRKSEFSALRALPNCGDIYPTFNYWYESFTLPSEALGLKIPMSLLEEQKEGSLALLDELHHKGLMIGSALAWQRYFQKRLELAKDVNDVIHSINPLIMYSSNASGGGLFKASDVIKVEKSRKEFVNDPIDAKFKGQLYDLLQKQKYDEARSLAEELTVKQPNNLQNWIALERINFVTGDKDAAIFSLAKVISMHSNAWLVYSELASLLHNTYNYWEAINLAYRVIRCDGNIAVAWNVVALVYLKFENMAGAEVCIEKAMKLLPNDAAILNAMAMVLDKKSDVESAIEYYRQAVSNAPEDLSLYSNLLFALLHNAKIPASEIFAEHLLYGDVVEKRNGALAPVRYLQNKDPDRVLRIGFVSGDLYSHPVSKFLSPVWNDIDHQHFSLYAYSTSHHHDDVTRMLEKNSTVWRNVASSSDTELFDLIKRDEIDILFDLSGHTGDNRLSMFAMKPAPIQISWIGYPGTTGLKAMDYYLVMNHAPYPEVLAHQFTEKLLYVLFDRQFEPVVNGPEVNDLPALTNGYLTFASFNRPTKINDTVLSAWGKILVQLPTSKMIIGALPSLQTRDLIRKKLESQGVQPEQLIFRERVNIMNYLAMHQEIDVLLDTFPYTGGTTTNYALWMGVPTLTLAGETYAARQGVVNLGQAGLNEFIAHSEADYIDKAISCNNRLDELNQIRHSLRKKMEYDIDTSDATAATYFEQALRTVWKAYCDGQPPKSYSIGH” it is “failed”. The entry for “MTLETAFMLPVQDAQHSFRRLLKAMSEPGVIVALHQLKRGWQPLNIATTSVLLTLADNDTPVWLSTPLNNDIVNQSLRFHTNAPLVSQPEQATFAVTDEAISSEQLNALSTGTAVAPEAGATLILQVASLSGGRMLRLTGAGIAEERMIAPQLPECILHELTERPHPFPLGIDLILTCGERLLAIPRTTHVEVC” is “not failed”.

For “MTLFTLLLTLAWERLFKQGEHWQIDHRLEVIFRHVSPPSLFQTLFLTLCSMGVVAALLWLTSGILFGLISLLLWIVISLMCIGAGEIRQHYRRYLQAAQRGESDASREMAAELALIHGLPVGTSESEQLKELQNALLWINFRFYLAPLFWFVVAGPYGPVTLMGYAFLRARQTWLARHHTPLERAQSGVDSLLHWLDWIPARLAGAAYALLGHGEKALPAWFASLGDSRSSQYWVLTQLAQFSLARESHIEPVETPKAAVTLAKKVTLVLVVVVALLTIYGALV”, the protein production entry was “failed”.

With “MTLHNEIKQLIIDCLDLEDVSIDDIETDAPLFGDGLGLDSIDALELGLAIKKKFDVKIEANSDSTKAHFYSVASLAKFIESQRP”, the protein production result is “failed”.

As for “MTLLWGLLSGMAVIGGLIGVVAGLVGTTAPRRAPLQQRWQALRAGKDQGEDVRLRRRTLAALAVVVFVAVWLVSGNFVGGALLGVAVVGVPWLISPAQMAQERIGQLEALSEWTQRLAGLLRLGMGLEQAMITSRQGAPDELAPQIVNLSDRLRLGWRPDGALRAFAEELNDVTADKVVAALILSVNDRGPGLAQALEDLAGTVRDEVAKKRAIEADRAKPRTTVRWMTVITVGVVVAGFFVPSYTKPYSTLLGQLVLAFLTVGFIGVLALMRQLGAFRRIPRFLITDPSSTVRLPLAGDGAGRAGRWP”, the protein production result is “failed”. Turning to “MTLNITSKQMDITPAIREHLEERLAKLGKWQTQLISPHFVLNKVPNGFSVEASIGTPLGNLLASATSDDMYKAINEVEEKLERQLNKLQHKSESRRADERLKDSFEN”, the protein production result is “not failed”.

Turning to “MTLPPYHTPLPAETLRALSIPAPWTFGLADRVRFGELDAIGHVNHTAYLRWYESFRLPFLKARHVTDYGPTSPRLVLKQVHCTYLAEMGMGEDYVITGRVSNFRTTSFTMEFACWRLGDAVECTSEGSAVVVLLNRDGSGRYPIPEAGRASFVTEDGVLAAG”, the protein production entry is “not failed”.
